# In US20230295324A1 (published 2023):
# T1: human OX40 on cells (CHO-K1/hu OX40) (human, UniProt P43489 29-277)
# T1 sequence (looked up): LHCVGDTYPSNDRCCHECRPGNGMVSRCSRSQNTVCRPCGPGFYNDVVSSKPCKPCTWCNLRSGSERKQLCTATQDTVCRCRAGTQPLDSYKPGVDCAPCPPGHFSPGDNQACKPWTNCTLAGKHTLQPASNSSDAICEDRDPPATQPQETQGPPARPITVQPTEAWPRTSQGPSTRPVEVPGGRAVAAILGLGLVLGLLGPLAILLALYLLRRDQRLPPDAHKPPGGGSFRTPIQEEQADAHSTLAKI
# T2: human OX40 protein (Acro biosystem, #OX0-H5224) (human, UniProt P43489 29-216)
# T2 construct: Bought recombinant protein
# T2 sequence (looked up): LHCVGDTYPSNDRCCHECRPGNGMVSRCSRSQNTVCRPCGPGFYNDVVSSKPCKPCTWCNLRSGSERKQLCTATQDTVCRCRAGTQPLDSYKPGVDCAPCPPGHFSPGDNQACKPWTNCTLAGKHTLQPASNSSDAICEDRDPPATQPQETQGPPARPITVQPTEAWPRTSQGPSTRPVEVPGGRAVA
# Tests used:
# [1] = target: T1, human OX40 on cells (CHO-K1/hu OX40); test: cell-based or functional assay
# [2] = target: T1, human OX40 on cells (CHO-K1/hu OX40); test: FACS, CHO-K1/hu OX40 cells
# Method: This example is intended to investigate the in vitro binding activity of anti-human OX40 HCAb monoclonal antibodies to human OX40. The antibody binding assay at the cellular level was performed using a stable CHO-K1 cell strain overexpressing human OX40 (CHO-K1/hu OX40). Briefly, the CHO-K1/hu OX40 cells were digested, resuspended in an F12K complete medium and washed once with PBS. The cell density was adjusted to 1×10⁶ cells/mL with PBS. The cells were seeded in a 96-well V-bottom plate (Corning, #3894) at 100 μL/well, and centrifuged, and then the supernatant was discarded. Then, the test antibodies diluted in a 3-fold gradient at concentrations that were 2 times the final concentrations were added at 100 μL/well. The cells were incubated at 4° C. for 1 h away from light. Thereafter, the cells in each well were rinsed twice with 100 μL of pre-cooled PBS, and centrifuged at 500 g at 4° C. for 5 min, and then the supernatant was discarded. […] The plate was incubated away from light at 4° C. for 30 min. The cells in each well were rinsed twice with 100 μL of pre-cooled PBS, and centrifuged at 500 g at 4° C. for 5 min, and then the supernatant was discarded. Finally, the cells in each well were resuspended in 200 μL of pre-cooled PBS, and the fluorescence signal values were read using a BD FACS CANTOII.
# [3] = target: T3, cynomolgus monkey OX40 protein (Novoprotein, #CB17) (cynomolgus monkey); test: ELISA, coated cyno OX40 protein
# T3 construct: Bought recombinant protein; also called cyno OX40
# Method: (§1) This example is intended to investigate the in vitro binding activity of the anti-OX40 HCAb monoclonal antibodies prepared in Example 1 to human and cynomolgus monkey OX40 proteins. The antibody binding assay at the protein level was performed using a human OX40 protein (Acro biosystem, #OX0-H5224) and a cynomolgus monkey OX40 protein (Novoprotein, #CB17). Briefly, a 384-well plate (PerkinElmer, #6007509) was coated with 1 μg/mL human OX40 protein and a cynomolgus monkey OX40 protein dissolved in PBS at 20 μL/well, and incubated at 4° C. overnight. The next day, the 384-well plate was washed three times with PBS containing 0.05% Tween (MEDICAGO, #09-9410-100), and blocked with PBS containing 2% milk (Bio-Rad, #170-6404) at 37° C. for 1 h. […] The plate was added with a stop buffer (BBI life sciences, #E661006-0200) at 20 μL/well, and read for OD₄₅₀₋₆₅₀ values using a plate reader (Molecular Devices, model: SpectraMax Plus). The values were analyzed with Graphad 8.0 and plotted.
# [4] = target: T2, human OX40 protein (Acro biosystem, …); test: ELISA, coated human OX40 protein
# Method: as §1
# [5] = target: T1, human OX40 on cells (CHO-K1/hu OX40); test: FACS, blocking of biotin-human OX40L on CHO-K1/hu OX40 cells
# Method: Briefly, the CHO-K1/hu OX40 cells were digested and resuspended in an F-12K complete medium, and the cell density was adjusted to 1×10⁶ cells/mL. The cells were seeded in a 96-well V-bottom plate (Corning, #3894) at 100 μL/well, and centrifuged, and then the supernatant was discarded. The test antigen-binding proteins diluted in a 3-fold gradient at concentrations that were 2 times the final concentrations were added at 100 μL/well, and the mixture was well mixed, wherein the antigen-binding protein had the highest final concentration of 100 nM, and a total of 8 concentrations were obtained. […] The cells were incubated at 4° C. for 1 h away from light. Thereafter, the cells were centrifuged at 4° C. for 5 min, and then the supernatant was discarded. […] The cells in each well were rinsed twice with 100 μL of pre-cooled PBS, and centrifuged at 500 g at 4° C. for 5 min, and then the supernatant was discarded. A 1:200 fluorescent secondary antibody PE Streptavidin (BD Biosciences, #554061) was added at 100 μL/well, and the cells were incubated away from light at 4° C. for 30 min. The cells in each well were rinsed twice with 200 μL of pre-cooled PBS, and centrifuged at 500 g at 4° C. for 5 min, and then the supernatant was discarded. Finally, the cells in each well were resuspended in 200 μL of precooled PBS. Fluorescence signal values were read using BD FACS CANTOII, and IC50 was calculated. Inhibition rate %={average MFI of non-blocking control well−MFI value of OX40 antibody}/{(average MFI of non-blocking control well)−average MFI of 100% blocking control well)}×100%.
"EC50, HEK293/OX40/NF-kb luciferase reporter [1] [nM]","Maximum fluorescence signal value, HEK293/OX40/NF-kb luciferase reporter [1] [luminescence]",EC50 [2] [nM],Maximum MFI [2] [MFI],EC50 [3] [nM],Maximum OD [3] [OD],EC50 [4] [nM],Maximum OD [4] [OD],Maximum inhibition rate (%) [5] [%],IC50 [5] [nM],Binder
23.2,156000,10.9,1740,0.152,1.87,0.134,1.96,16,–,"PR002061 (antibody, human IgG1, V domains shown, no light chain; also called anti-OX40 HCAb antibody) VH: EVQLLESGGGLVQPGGSLRLSCAASGFTFSSYAMSWVRQAPGKGLEWVSAISGRGGSTYYADSVRGRFTISRDNSKNTLYLQMNSLRAEDTAVYYCANGMTGTTDVDYWGQGTLVTVSS"
14.3,172000,12.8,1670,0.133,1.76,0.124,1.76,12,–,"PR002057 (antibody, human IgG1, V domains shown, no light chain; also called anti-OX40 HCAb antibody) VH: EVQLLESGGGLVQPGGSLRLSCAASGFIFSSYAMSWVRQAPGKGLEWVSAISGGGGSTFYADSVRGRFTISRDNSKNTLYLQMNSLRAEDTAVYYCADGMTGTTDVDYWGQGTLVTVSS"
30.3,147000,22.4,1570,0.218,2.08,0.0814,2.28,20,–,"PR002064 (antibody, human IgG1, V domains shown, no light chain; also called anti-OX40 HCAb antibody) VH: EVQLVETGGGLVQPGGSLRLSCAASGFTFSSYAMSWVRQAPGKGQEWVSAISGSGGSTFYADSVRGRFTISRDNSKNTLYLQMSSLRAEDTAVYYCANGMTGTTDVDYWGQGTLVTVSS"
15.1,132000,8.95,1860,0.0938,1.94,0.0828,2.09,12,–,"PR002060 (antibody, human IgG1, V domains shown, no light chain; also called anti-OX40 HCAb antibody) VH: EVQLLESGGGLVQPGGSLRLSCAASGFTFSDYAMSWVRQAPGKGLEWVSAISGRGGSTYYADSVRGRFTISRDNSKNTLYLQMTSLRAEDTAVYYCANGMTGTTDVDYWGQGTLVTVSS"
25.2,149000,37.9,1900,0.126,1.81,0.103,1.94,13,–,"PR002062 (antibody, human IgG1, V domains shown, no light chain; also called anti-OX40 HCAb antibody) VH: EVQLLESGGGLVQPGGSLRLSCAASGFTFSSYAMSWVRQAPGKGQEWVSAISGSGGSTFYADSVRGRFTISRDNSKNTLYLQMSSLRAEDTAVYYCANGMTGTTDVDYWGQGTLVTVSS"
7.6,129000,4.39,2530,0.132,2.51,0.0729,2.4,46,67.6,"PR002070 (antibody, human IgG1, V domains shown, no light chain; also called anti-OX40 HCAb antibody) VH: EVQLLESGGGLVQPGGSLRLSCIASGFSFSSYAMSWVRQAPGKGLEWVSAISGRGGSTFYADSVRGRFNISRDNSKNTLYLQMNSLRVEDTAVYYCANGMTGTTDVDYWGQGTLVTVSS"
6.27,99700,4.43,2990,0.129,2.24,0.051,2.24,53,50.9,"PR002069 (antibody, human IgG1, V domains shown, no light chain; also called anti-OX40 HCAb antibody) VH: EVQLLESGGGLVQPGGSLRLSCAASGFTFSSYAMSWVRQAPGKGREWVSAISGGGGNTFYADSVRGRFTISRDNSKNTLYLQMNSLRAEDTAVYYCANGVTGTTDVDYWGQGTLVTVSS"
4.89,154000,3.12,2930,0.0682,1.69,0.057,1.71,34,43.7,"PR002056 (antibody, human IgG1, V domains shown, no light chain; also called anti-OX40 HCAb antibody) VH: EVQLLESGGGLVQPGGSLRLSCAASGFTFSSYAMSWVRQAPGKGLEWVSAISGGGGSIFYADSVRGRFTISRDNSKNTLYLQMNSLRAEDTAVYYCANGMTGTTDVDYWGQGTLVTVSS"
–,–,–,–,0.415,3.07,0.0618,2.48,–,–,"PR002075 (antibody, human IgG1, V domains shown, no light chain; also called anti-OX40 HCAb antibody) VH: EVQLVETGGGLIQPGGSLRLSCAASGFTFSSYAMSWVRQAPGKGLEWVSAISGSGGNTYYADSVRGRFTISRDNSKNTLYLQMNSLRAEDTAVYYCANGITGTTDVDYWGQGTRVTVSS"
22.9,139000,10.1,2130,0.253,2.38,0.092,2.42,25,23.1,"PR002068 (antibody, human IgG1, V domains shown, no light chain; also called anti-OX40 HCAb antibody) VH: EVQLLESGGGLVQPGGSLRLSCAASGFSFSSYAMTWVRQAPGKGLEWVSAISGGGGSIFYADSVRGRFTISRDNSKNTLYLQMNSLRAEDTAVYYCANGMTGSTDVDYWGQGTQVTVSS"
1.83,117000,1.35,3630,0.0774,1.9,0.0695,2,79,15.9,"PR002059 (antibody, human IgG1, V domains shown, no light chain; also called anti-OX40 HCAb antibody) VH: EVQLLESGGGLVQPGGSLRLSCVVSGLTFSSYAMSWVRQAPGKGREWVSAISGRGGSTFYADSVRGRFTISRDNSKNTLYLQMNSLRAEDTAVYYCANGMTGSTDVDYWGQGTLVTVSS"
